Measurements as given in patent publication US10005838B2, “Milk fat globule epidermal growth factor 8 regulates fatty acid uptake” (REGENTS OF THE UNIVERSITY OF CALIFORNIA, priority 2013, dated 2018).
Entries after “also recorded” stand apart in the source; their conditions may differ.

Legend:
Rictor = assay: Western blot, Rictor phosphorylation in HepG2 cells; format: cell-based, human
Procedure: (§1) Following tissue preparation and SDS-PAGE, membranes were incubated with a polyclonal antibody against Akt (Cell Signaling Technology), or Rictor (Cell Signaling); Anti-PGC1 alpha antibody (abcam); a monoclonal antibody against Phospho-Akt Ser473 (Cell Signaling), Phospho-Rictor Thr1135 (Cell Signaling), GAPDH (Cell Signaling), or Mfge8 (R&D Systems). For evaluation of total AKT and total Rictor, membranes that been blotted for phospho-AKT and phospho-Rictor were stripped and reprobed. Plasma membrane and post-plasma membrane fractions were isolated as previously described (Nishiumi, S. & Ashida, H., Biosci Biotechnol Biochem 71, 2343-2346 (2007)).

Rictor at threonine 1135 = assay: Western blot, Rictor phosphorylation in 3T3-L1 adipocytes; format: cell-based, mouse
Procedure: as §1

AKT = assay: Western blot, AKT phosphorylation in HepG2 cells; format: cell-based, human
Procedure: as §1

CD36 = assay: Plasma membrane CD36 expression in primary cells; format: cell-based, mouse; conditions: primary Mfge8−/− adipocytes, hepatocytes, and enterocytes; to WT levels
Procedure: as §1

primary WT adipocytes = assay: Glucose uptake assay (2-NBDG) in primary WT adipocytes; format: cell-based, mouse; conditions: insulin 1 μM
Procedure: (§2) Uptake of […] by primary cells and cell lines was assessed using the fluorescent D-glucose analog 2-[N-(7-nitrobenz-2-oxa-1,3-diazol-4-yl)amino]-2-deoxy-D-glucose (2-NBDG) (Invitrogen). 2-NBDG has been successfully used as an alternative to 2-deoxyglucose in the measurement of glucose uptake in multiple cell types. Cells were plated in triplicate in 96-well plates at a concentration of 25,000 cells per well in 100 μl of DMEM/10% FCS. Plates were centrifuged at 1000 rpm for 4 minutes and incubated at 37° C. for 4-5 hours. Cells were then serum deprived for 1 hour before treatment with recombinant proteins for 20 minutes followed by the addition of 2-NBDG (100 μM) for 10 min at 37° C. in a humidified atmosphere of 5% CO2. Reaction was stopped by adding a twofold volume of ice-cold PBS and the wells were washed again with ice-cold PBS three times. The fluorescent signal before (autofluorescence) and after adding 100 μM 2-NBDG was measured using fluorescent plate reader at 37° C. (Molecular Device using the 485 nmex and 520 nmemiss filter set). The net increase in fluorescence was normalized to the lowest signal (0 cells/well). […]

FATP1 = assay: Plasma membrane FATP1 expression in primary adipocytes; format: cell-based, mouse; conditions: Mfge8−/− adipocytes
Procedure: as §1

antral smooth muscle = assay: Force of antral smooth muscle ring contraction; design: species or system mouse; conditions: addition of rMfge8
PTEN = PTEN activity assay (conversion of PIP3 to PIP2) in freshly isolated antrum; format: biochemical, mouse; conditions: 10 μg/ml
Procedure: In FIG. 14A, the antral rings were treated for 15 min with PI3K inhibitor wortmannin (Wort.100 nm) followed by assessment of contractile force in response to MCh. N=3-4. ***P<0.0001. […] Western blot of antral tissue were treated for 30 minutes with or without rMfge8. […] Western blot of antrum were treated for 30 minutes with wortmannin (100 ng/ml) or Mfge8 and then with MCh for 15 minutes prior to quantifying active RhoA using a GST pull-down. […] PTEN activity assay measured the conversion of PIP3 to PIP2 in freshly isolated antrum with and without the rMfge8 or RGE construct (10 μg/ml) n=3-5. *P<0.05, **P<0.01, ***P<0.001.

3T3-L1 adipocytes = assay: Glucose uptake assay (2-NBDG) in 3T3-L1 adipocytes; format: cell-based, mouse
Procedure: as §2

[1] = Blood glucose after IP insulin injection; format: in vivo, mouse; conditions: mice, rMfge8 co-administered with insulin, antibodies as pretreatment 15 min before insulin
Procedure: Mice were fasted for 4 hours after which they were injected with 1.5 U/kg of insulin IP. Blood was collected from the tail vein immediately before injection and then again after 15, 30, 60, and 90 minutes for evaluation of blood glucose.
In experiments using RGE or Mfge8 construct: mice received 50 μg/kg body weight of recombinant protein. In experiments using function-blocking antibodies: 6-8 week-old mice were fasted for 4 hours and then each mouse received 0.5 μg antibody (integrins αv (clone RMV-7) and β5 (clone ALULA)) per gram body weight in total volume of 200 μl, 15 minutes later each mouse received an insulin injection (1.5 U/kg, intraperitoneal injection (IP)). Blood glucose levels were measured by sampling from the tail vein of mice from 15 minutes after insulin administered.

B1: rMfge8: recombinant Milk Fat Globule Epidermal Growth Factor 8, an integrin ligand, expressed in High 5 cells (protein)
chain: ASGDFCDSSLCLNGGTCLTGQDNDIYCLCPEGFTGLVCNETERGPCSPNPCYNDAKCLVTLDTQRGDIFTEYICQCPVGYSGIHCETETNYYNLDGEYMFTTAVPNTAVPTPAPTPDLSNNLASRCSTQLGMEGGAIADSQISASSVYMGFMGLQRWGPELARLYRTGIVNAWTASNYDSKPWIQVNLLRKMRVSGVMTQGASRAGRAEYLKTFKVAYSLDGRKFEFIQDESGGDKEFLGNLDNNSLKVNMFNPTLEAQYIKLYPVSCHRGCTLRFELLGCELHGCSEPLGLKNNTIPDSQMSASSSYKTWNLRAFGWYPHLGRLDNQGKINAWTAQSNSAKEWLQVDLGTQRQVTGIITQGARDFGHIQYVASYKVAHSDDGVQWTVYEEQGSSKVFQGNLDNNSHKKNIFEKPFMARYVRVLPVSWHNRITLRLELLGC
- phosphorylation of Rictor (Rictor): induced
- phosphorylation of Rictor at threonine 1135 (Rictor at threonine 1135): phosphorylated
- phosphorylation of AKT (AKT): induced
- membrane expression of CD36 (CD36): increased
- effect of insulin on glucose uptake (primary WT adipocytes): significantly inhibited
- membrane expression of FATP1 (FATP1): increased
- smooth muscle contraction of stomach strips from Mfge8 KO mice (antral smooth muscle): rescued
- PTEN activity (PTEN): modulates
- effect of insulin on glucose uptake (3T3-L1 adipocytes; insulin 1 μM): significantly inhibited
- baseline glucose uptake (3T3-L1 adipocytes; without insulin): no difference; also recorded: no effect
- serum glucose levels after insulin injection as compared with insulin injection alone [1]: significantly higher
